# Assay results: patent US20030054535A1, “Endoglucanase mutants and mutant hydrolytic depolymerizing enzymes and uses thereof” (priority 1999, published 2003)
# B1: Acidothermus cellulolyticus EI endoglucanase (Cel5A) catalytic domain, native (wild type), SEQ ID NO:3 of U.S. Pat. No. 5,536,655 (Acidothermus cellulolyticus … (protein)
# chain: AGGGYWHTSGREILDANNVPVRIAGINWFGFETCNYVVHGLWSRDYRSMLDQIKSLGYNTIRLPYSDDILKPGTMPNSINFYQMNQDLQGLTSLQVMDKIVAYAGQIGLRIILDRHRPDCSGQSALWYTSSVSEATWISDLQALAQRYKGNPTVVGFDLHNEPHDPACWGCGDPSIDWRLAAERAGNAVLSVNPNLLIFVEGVQSYNGDSYWWGGNLQGAGQYPVVLNVPNRLVYSAHDYATSVYPQTWFSDPTFPNNMPGIWNKNWGYLFNQNIAPVWLGEFGTTLQSTTDQTWLKTLVQYLRPTAQYGADSFQWTFWSWNPDSGDTGGILKDDWQTVDTVKDGYLAPIKSSIFDPVG
# B2: Acidothermus cellulolyticus EI endoglucanase (Cel5A) catalytic domain variant W42R, SEQ ID NO:1 (Acidothermus cellulolyticus 11B; W83R) (protein)
# chain: AGGGYWHTSGREILDANNVPVRIAGINWFGFETCNYVVHGLRSRDYRSMLDQIKSLGYNTIRLPYSDDILKPGTMPNSINFYQMNQDLQGLTSLQVMDKIVAYAGQIGLRIILDRHRPDCSGQSALWYTSSVSEATWISDLQALAQRYKGNPTVVGFDLHNEPHDPACWGCGDPSIDWRLAAERAGNAVLSVNPNLLIFVEGVQSYNGDSYWWGGNLQGAGQYPVVLNVPNRLVYSAHDYATSVYPQTWFSDPTFPNNMPGIWNKNWGYLFNQNIAPVWLGEFGTTLQSTTDQTWLKTLVQYLRPTAQYGADSFQWTFWSWNPDSGDTGGILKDDWQTVDTVKDGYLAPIKSSIFDPV
# notes: the protein was genetically truncated near the beginning of the linker peptide; made in house; host or cells: E. coli XL1-blue
# B3: Acidothermus cellulolyticus EI endoglucanase (Cel5A) catalytic domain variant Y82R, SEQ ID NO:2 (Acidothermus cellulolyticus 11B; Y123R) (protein)
# chain: AGGGYWHTSGREILDANNVPVRIAGINWFGFETCNYVVHGLWSRDYRSMLDQIKSLGYNTIRLPYSDDILKPGTMPNSINFRQMNQDLQGLTSLQVMDKIVAYAGQIGLRIILDRHRPDCSGQSALWYTSSVSEATWISDLQALAQRYKGNPTVVGFDLHNEPHDPACWGCGDPSIDWRLAAERAGNAVLSVNPNLLIFVEGVQSYNGDSYWWGGNLQGAGQYPVVLNVPNRLVYSAHDYATSVYPQTWFSDPTFPNNMPGIWNKNWGYLFNQNIAPVWLGEFGTTLQSTTDQTWLKTLVQYLRPTAQYGADSFQWTFWSWNPDSGDTGGILKDDWQTVDTVKDGYLAPIKSSIFDPV
# notes: as for B2
# B4: Acidothermus cellulolyticus EI endoglucanase (Cel5A) catalytic domain variant Y245G, SEQ ID NO:3 (Acidothermus cellulolyticus 11B; Y286G) (protein)
# chain: AGGGYWHTSGREILDANNVPVRIAGINWFGFETCNYVVHGLWSRDYRSMLDQIKSLGYNTIRLPYSDDILKPGTMPNSINFYQMNQDLQGLTSLQVMDKIVAYAGQIGLRIILDRHRPDCSGQSALWYTSSVSEATWISDLQALAQRYKGNPTVVGFDLHNEPHDPACWGCGDPSIDWRLAAERAGNAVLSVNPNLLIFVEGVQSYNGDSYWWGGNLQGAGQYPVVLNVPNRLVYSAHDYATSVGPQTWFSDPTFPNNMPGIWNKNWGYLFNQNIAPVWLGEFGTTLQSTTDQTWLKTLVQYLRPTAQYGADSFQWTFWSWNPDSGDTGGILKDDWQTVDTVKDGYLAPIKSSIFDPV
# notes: the mutant and wild type Cel5A catalytic domains were purified using the purification methods described above; made in house; host or cells: E. coli XL1-blue
# Key:
# [1] = substrate: OC[C@H]1O[C@@H](O[C@H]2[C@H](O)[C@@H](O)[C@H](O[C@H]3[C@H](O)[C@@H](O)C(O)O[C@@H]3CO)O[C@@H]2CO)[C@H](O)[C@@H](O)[C@@H]1O; assay: purified protein, by the assay type; conditions: other: cellotriose, 5 mM acetate pH 5.0, 50 degrees C, 50.0 °C
# [2] = substrate: OC[C@H]1O[C@@H](O[C@H]2[C@H](O)[C@@H](O)[C@H](O[C@H]3[C@H](O)[C@@H](O)C(O)O[C@@H]3CO)O[C@@H]2CO)[C@H](O)[C@@H](O)[C@@H]1O; assay: purified protein, by the assay type; type: biochemical, Acidothermus cellulolyticus; conditions: other: cellotriose, 5 mM acetate pH 5.0, 50 degrees C, 50.0 °C
# Experimental: Each assay mixture was pre-incubated at 50 degrees C. for 10 min. prior to the addition of 0.00272 micromolar (0. 1092 microgram/mL) enzyme, which was also made up in 5 mM acetate buffer with 10 microgram/mL BSA. The final assay volume was 0.1 mL.
# At set-time intervals, an aliquot of the reaction mixture was pulled and immediately analyzed for the release of cellobiose using a Dionex DX300 chromatography system and a Dionex PAD2 pulsed amperometric detector having a gold working electrode. The response of this detector was optimized for the detection of carbohydrates using a waveform defined by the following time and potential settings: t1=420 msec.; EI=+0.05 V; t2=180 msec.; E2=+0.75 V; t3=360 msec.; and E3=−0.15 V. Separation of the reaction products, from the substrate, was achieved on a Dionex CarboPac PA-1 analytical (4×250 mm) column equipped with CarboPac PA-1 (4×50 uard column, 500 mM sodium hydroxide eluent, and a flow rate of 1.5 mL/min. The amount of cellobiose present for each time-point-sample was quantified by comparing the area of the cellobiose peak against a linear calibration curve. The kinetic constants were determined with a double-reciprocal-plot, where the reciprocal of the rate of cellobiose produced was plotted as a function of the inverse of the substrate concentration.
# Michaelis-Menten kinetics of the mutant EI enzymes and the native enzyme were determined.
Protein,Km [1],Vmax [1],Km [2],Vmax [2]
B1,350 µM,0.86 µM/min,,
B2,,,610 µM,0.99 µM/min
B3,,,690 µM,1.5 µM/min
B4,,,480 µM,0.85 µM/min
